{"source": "patent US20260015421A1", "molecular_target": "CD19 on CD19+ cells (Raji, Nalm6) (human) (UniProt P15391)", "sequence (P15391 20-556)": "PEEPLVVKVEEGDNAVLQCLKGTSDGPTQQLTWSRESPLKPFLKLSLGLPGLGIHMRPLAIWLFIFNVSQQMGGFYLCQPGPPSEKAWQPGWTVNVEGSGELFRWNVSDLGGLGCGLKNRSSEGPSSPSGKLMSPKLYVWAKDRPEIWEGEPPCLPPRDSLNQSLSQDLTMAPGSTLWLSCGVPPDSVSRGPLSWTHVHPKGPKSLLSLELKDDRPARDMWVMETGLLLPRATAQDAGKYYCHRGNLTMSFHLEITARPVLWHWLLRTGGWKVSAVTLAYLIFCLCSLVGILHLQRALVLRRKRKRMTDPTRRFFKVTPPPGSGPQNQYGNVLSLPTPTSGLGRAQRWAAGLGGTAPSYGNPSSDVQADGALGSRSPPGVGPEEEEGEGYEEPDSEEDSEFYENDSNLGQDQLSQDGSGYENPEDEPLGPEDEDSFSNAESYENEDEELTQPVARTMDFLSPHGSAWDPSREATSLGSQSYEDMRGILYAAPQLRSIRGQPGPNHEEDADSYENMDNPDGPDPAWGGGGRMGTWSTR", "assay": "cell-based or functional assay", "data": [{"substance": "non-signaling CD19 CAR FMC63-CD8h-CD28TMCo-noZ (IL15 co-expressed), on γδ T cells (from UniProt P01732 138-182; P10747 153-220)", "values": [{"measurement": "cytotoxicity against CD19+ Nalm6 ALL cells (7-AAD/CFSE flow cytometry, E:T=0.25-4.0) (fold over non-transduced control)", "result": 1.5}]}]}
